From IntAct's records for PubMed 19103591

B1: Sigma-E factor regulatory protein RseB (Escherichia coli (strain K12)), P0AFX9 (parent)
chain: MKQLWFAMSLVTGSLLFSANASATPASGALLQQMNLASQSLNYELSFISINKQGVESLRYRHARLDNRPLAQLLQMDGPRREVVQRGNEISYFEPGLEPFTLNGDYIVDSLPSLIYTDFKRLSPYYDFISVGRTRIADRLCEVIRVVARDGTRYSYIVWMDTESKLPMRVDLLDRDGETLEQFRVIAFNVNQDISSSMQTLAKANLPPLLSVPVGEKAKFSWTPTWLPQGFSEVSSSRRPLPTMDNMPIESRLYSDGLFSFSVNVNRATPSSTDQMLRTGRRTVSTSVRDNAEITIVGELPPQTAKRIAENIKFGAAQ
partner: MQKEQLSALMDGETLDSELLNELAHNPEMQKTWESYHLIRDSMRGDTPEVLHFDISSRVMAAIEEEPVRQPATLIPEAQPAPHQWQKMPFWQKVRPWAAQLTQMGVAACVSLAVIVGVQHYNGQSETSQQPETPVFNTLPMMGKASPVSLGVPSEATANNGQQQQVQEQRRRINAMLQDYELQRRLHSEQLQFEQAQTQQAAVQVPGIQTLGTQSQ
B2: Anti-sigma-E factor RseA (Escherichia coli (strain K12)), P0AFX7 (parent)
chain: B1 partner
partner: B1 chain

Variants of: B1
Conditions: with rsea_ecoli rseA

Effect of a mutation on the interaction, decreasing interaction:
MKQLWFAMSLVTGSLLFSANASATPASGALLQQMNLASQSLNYELSFISINKQGVESLRYRHARLDNRPLAQLLQMDGPRREVVQRGNEISYFEPGLEPFTLNGDYIVDSLPSLIYTDFKRLSPYYDFISVGRTRIADRLCEVIRVVARDGTRYSYIVWMDTESKLPMRVDLLDRDGETLEQFRVIAFNVNQDISSSMQTLAKANLPPLLSVPVGEKAKFSWTPTWLPQGFSEVSSSRRPLPTMDNMPAASRLYSDGLFSFSVNVNRATPSSTDQMLRTGRRTVSTSVRDNAEITIVGELPPQTAKRIAENIKFGAAQ [I249A;E250A]
MKQLWFAMSLVTGSLLFSANASATPASGALLQQMNLASQSLNYELSFISINKQGVESLRYRHARLDNRPLAQLLQMDGPRREVVQRGNEISYFEPGLEPFTLNGDYIVDSLPSLIYTDFKRLSPYYDFISVGRTRIADRLCEVIRVVARDGTRYSYIVWMDTESKLPMRVDLLDRDGETLEQFRVIAFNVNQDISSSMQTLAKANLPPLLSVPVGEKAKFSWTPTWLPQGFSEVSSSRRPLPTMAAMPAASRLYSDGLFSFSVNVNRATPSSTDQMLRTGRRTVSTSVRDNAEITIVGELPPQTAKRIAENIKFGAAQ [D245A;N246A;I249A;E250A]
MKQLWFAMSLVTGSLLFSANASATPASGALLQQMNLASQSLNYELSFISINKQGVESLRYRHARLDNRPLAQLLQMDGPRREVVQRGNEISYFEPGLEPFTLNGDYIVDSLPSLIYTDFKRLSPYYDFISVGRTRIADRLCEVIRVVARDGTRYSYIVWMDTESKLPMRVDLLDRDGETLEQFRVIAFNVNQDISSSMQTLAKANLPPLLSVPVGEKAKFSWTPTWLPQGFSEVSSSRRPLPTMDNMPAESRLYSDGLFSFSVNVNRATPSSTDQMLRTGRRTVSTSVRDNAEITIVGELPPQTAKRIAENIKFGAAQ [I249A]
MKQLWFAMSLVTGSLLFSANASATPASGALLQQMNLASQSLNYELSFISINKQGVESLRYRHARLDNRPLAQLLQMDGPRREVVQRGNEISYFEPGLEPFTLNGDYIVDSLPSLIYTDFKRLSPYYDFISVGRTRIADRLCEVIRVVARDGTRYSYIVWMDTESKLPMRVDLLDRDGETLEQFRVIAFNVNQDISSSMQTLAKANLPPLLSVPVGEKAKFSWTPTWLPQGFSEVSSSAAPLPTMDNMPIESRLYSDGLFSFSVNVNRATPSSTDQMLRTGRRTVSTSVRDNAEITIVGELPPQTAKRIAENIKFGAAQ [R238A;R239A]
MKQLWFAMSLVTGSLLFSANASATPASGALLQQMNLASQSLNYELSFISINKQGVESLRYRHARLDNRPLAQLLQMDGPRREVVQRGNEISYFEPGLEPFTLNGDYIVDSLPSLIYTDFKRLSPYYDFISVGRTRIADRLCEVIRVVARDGTRYSYIVWMDTESKLPMRVDLLDRAGETLEQFRVIAFNVNQDISSSMQTLAKANLPPLLSVPVGEKAKFSWTPTWLPQGFSEVSSSRRPLPTMDNMPIESRLYSDGLFSFSVNVNRATPSSTDQMLRTGRRTVSTSVRDNAEITIVGELPPQTAKRIAENIKFGAAQ [D176A]
MKQLWFAMSLVTGSLLFSANASATPASGALLQQMNLASQSLNYELSFISINKQGVESLRYRHARLDNRPLAQLLQMDGPRREVVQRGNEISYFEPGLEPFTLNGDYIVDSLPSLIYTDFKRLSPYYDFISVGRTRIADRLCEVIRVVARDGTRYSYIVWMDTESKLPMRVDLLDRDGETLEQFRVIAFNVNQDISSSMQTLAKANLPPLLSVPVGEKAKFSWTPTWLPQGFSEVSSSRRPLPTMDNMPIASRLYSDGLFSFSVNVNRATPSSTDQMLRTGRRTVSTSVRDNAEITIVGELPPQTAKRIAENIKFGAAQ [E250A]
MKQLWFAMSLVTGSLLFSANASATPASGALLQQMNLASQSLNYELSFISINKQGVESLRYRHARLDNRPLAQLLQMDGPRREVVQRGNEISYFEPGLEPFTLNGDYIVDSLPSLIYTDFKRLSPYYDFISVGRTRIADRLCEVIRVVARDGTRYSYIVWMDTESKLPMRVDLLDRDGETLEAFRVIAFNVNQDISSSMQTLAKANLPPLLSVPVGEKAKFSWTPTWLPQGFSEVSSSRRPLPTMDNMPIESRLYSDGLFSFSVNVNRATPSSTDQMLRTGRRTVSTSVRDNAEITIVGELPPQTAKRIAENIKFGAAQ [Q182A]
MKQLWFAMSLVTGSLLFSANASATPASGALLQQMNLASQSLNYELSFISINKQGVESLRYRHARLDNRPLAQLLQMDGPRREVVQRGNEISYFEPGLEPFTLNGDYIVDSLPSLIYTDFKRLSPYYDFISVGRTRIADRLCEVIRVVARDGTRYSYIVWMDTESKLPMRVDLLDRDGATLEQFRVIAFNVNQDISSSMQTLAKANLPPLLSVPVGEKAKFSWTPTWLPQGFSEVSSSRRPLPTMDNMPIESRLYSDGLFSFSVNVNRATPSSTDQMLRTGRRTVSTSVRDNAEITIVGELPPQTAKRIAENIKFGAAQ [E178A]
MKQLWFAMSLVTGSLLFSANASATPASGALLQQMNLASQSLNYELSFISINKQGVESLRYRHARLDNRPLAQLLQMDGPRREVVQRGNEISYFEPGLEPFTLNGDYIVDSLPSLIYTDFKRLSPYYDFISVGRTRIADRLCEVIRVVARDGTRYSYIVWMDTESKLPMRVALLDRDGETLEQFRVIAFNVNQDISSSMQTLAKANLPPLLSVPVGEKAKFSWTPTWLPQGFSEVSSSRRPLPTMDNMPIESRLYSDGLFSFSVNVNRATPSSTDQMLRTGRRTVSTSVRDNAEITIVGELPPQTAKRIAENIKFGAAQ [D171A]

Variants of: B1
Conditions: with rsea_ecoli rseA
Remark: another data set of the same source

Effect of a mutation on the interaction, decreasing interaction:
MKQLWFAMSLVTGSLLFSANASATPASGALLQQMNLASQSLNYELSFISINKQGVESLRYRHARLDNRPLAQLLQMDGPRREVVQRGNEISYFEPGLEPFTLNGDYIVDSLPSLIYTDFKRLSPYYDFISVGRTRIADRLCEVIRVVARDGTRYSYIVWMDTESKLPMRVDLLARDGETLEQFRVIAFNVNQDISSSMQTLAKANLPPLLSVPVGEKAKFSWTPTWLPQGFSEVSSSRRPLPTMDNMPIESRLYSDGLFSFSVNVNRATPSSTDQMLRTGRRTVSTSVRDNAEITIVGELPPQTAKRIAENIKFGAAQ [D174A]
MKQLWFAMSLVTGSLLFSANASATPASGALLQQMNLASQSLNYELSFISINKQGVESLRYRHARLDNRPLAQLLQMDGPRREVVQRGNEISYFEPGLEPFTLNGDYIVDSLPSLIYTDFKRLSPYYDFISVGRTRIADRLCEVIRVVARDGTRYSYIVWMDTESKLPMRVDLLDRDGETLAQFRVIAFNVNQDISSSMQTLAKANLPPLLSVPVGEKAKFSWTPTWLPQGFSEVSSSRRPLPTMDNMPIESRLYSDGLFSFSVNVNRATPSSTDQMLRTGRRTVSTSVRDNAEITIVGELPPQTAKRIAENIKFGAAQ [E181A]

Variants of: B2
Conditions: with rseb_ecoli rseB

Effect of a mutation on the interaction, decreasing interaction:
MQKEQLSALMDGETLDSELLNELAHNPEMQKTWESYHLIRDSMRGDTPEVLHFDISSRVMAAIEEEPVRQPATLIPEAQPAPHQWQKMPFWQKVRPWAAQLTQMGVAACVSLAVIVGVQHYNGQSETSQQPETPVFNTLPMMGKASPVSLGVPSEATANNGQQQQVQEQRRRINAMLQDYELARRLHSEQLQFEQAQTQQAAVQVPGIQTLGTQSQ [Q183A]
MQKEQLSALMDGETLDSELLNELAHNPEMQKTWESYHLIRDSMRGDTPEVLHFDISSRVMAAIEEEPVRQPATLIPEAQPAPHQWQKMPFWQKVRPWAAQLTQMGVAACVSLAVIVGVQHYNGQSETSQQPETPVFNTLPMMGKASPVSLGVPSEATANNGQQQQVQEQRRRINAMLQAYELQRRLHSEQLQFEQAQTQQAAVQVPGIQTLGTQSQ [D179A]
MQKEQLSALMDGETLDSELLNELAHNPEMQKTWESYHLIRDSMRGDTPEVLHFDISSRVMAAIEEEPVRQPATLIPEAQPAPHQWQKMPFWQKVRPWAAQLTQMGVAACVSLAVIVGVQHYNGQSETSQQPETPVFNTLPMMGKASPVSLGVPSEATANNGQQQQVQEQRRRINAMLQDYELQRALHSEQLQFEQAQTQQAAVQVPGIQTLGTQSQ [R185A]
MQKEQLSALMDGETLDSELLNELAHNPEMQKTWESYHLIRDSMRGDTPEVLHFDISSRVMAAIEEEPVRQPATLIPEAQPAPHQWQKMPFWQKVRPWAAQLTQMGVAACVSLAVIVGVQHYNGQSETSQQPETPVFNTLPMMGKASPVSLGVPSEATANNGQQQQVQEQRRRIAAMLQDYELQRRLHSEQLQFEQAQTQQAAVQVPGIQTLGTQSQ [N174A]
MQKEQLSALMDGETLDSELLNELAHNPEMQKTWESYHLIRDSMRGDTPEVLHFDISSRVMAAIEEEPVRQPATLIPEAQPAPHQWQKMPFWQKVRPWAAQLTQMGVAACVSLAVIVGVQHYNGQSETSQQPETPVFNTLPMMGKASPVSLGVPSEATANNGQQQQVQEQRRRINAMLQDYELQRRAHSEQLQFEQAQTQQAAVQVPGIQTLGTQSQ [L186A]
MQKEQLSALMDGETLDSELLNELAHNPEMQKTWESYHLIRDSMRGDTPEVLHFDISSRVMAAIEEEPVRQPATLIPEAQPAPHQWQKMPFWQKVRPWAAQLTQMGVAACVSLAVIVGVQHYNGQSETSQQPETPVFNTLPMMGKASPVSLGVPSEATANNGQQQQVQEQRRRINAMAQDYELQRRLHSEQLQFEQAQTQQAAVQVPGIQTLGTQSQ [L177A]
MQKEQLSALMDGETLDSELLNELAHNPEMQKTWESYHLIRDSMRGDTPEVLHFDISSRVMAAIEEEPVRQPATLIPEAQPAPHQWQKMPFWQKVRPWAAQLTQMGVAACVSLAVIVGVQHYNGQSETSQQPETPVFNTLPMMGKASPVSLGVPSEATANNGQQQQVQEQRRRINAMLQDAELQRRLHSEQLQFEQAQTQQAAVQVPGIQTLGTQSQ [Y180A]
MQKEQLSALMDGETLDSELLNELAHNPEMQKTWESYHLIRDSMRGDTPEVLHFDISSRVMAAIEEEPVRQPATLIPEAQPAPHQWQKMPFWQKVRPWAAQLTQMGVAACVSLAVIVGVQHYNGQSETSQQPETPVFNTLPMMGKASPVSLGVPSEATANNGQQQQVQEQRRRINAMLQDYELQRRLASEQLQFEQAQTQQAAVQVPGIQTLGTQSQ [H187A]
MQKEQLSALMDGETLDSELLNELAHNPEMQKTWESYHLIRDSMRGDTPEVLHFDISSRVMAAIEEEPVRQPATLIPEAQPAPHQWQKMPFWQKVRPWAAQLTQMGVAACVSLAVIVGVQHYNGQSETSQQPETPVFNTLPMMGKASPVSLGVPSEATANNGQQQQVQEQRRRINAMLQDYALQRRLHSEQLQFEQAQTQQAAVQVPGIQTLGTQSQ [E181A]
